Laboratory results: the DeepSol protein solubility set

Test: soluble on expression in E. coli; label from the status in PepcDB or PDB records

Soluble on expression in E. coli, soluble:
MSLGKATGFLEFGRELPKKIDPAERIKNNKEFVLNQEFGKKINQQASRCMDCGVPFCHNGCPIGNIIPEFNDAVYRDSWEEAWNILSSTNNFPEFTGRVCPAPCETACVLGINQDPITICNIEKTIVERAYQEGYAKPKTPRSRTGKTVAIIGSGPAGLAAAEQLNAAGHSVTVFERDEKVGGLLRFGIPDFKLGMDVIDRKINLMEQAGVKFVVNAHIGVDINAQQLRQEFDAVLLTGGSTVPRDLSIPGRDLKGVYFAMQFLAQNNRRANGMDLKGEEIHAKGKHVVVIGGGDTGSDCVGTSNRHGAASITQVEIMPIPPQKRPVNMPWPQYPMILRTSTSHEEGCERHWNILTKEFIGNEQGEVTGLRIADIVWKDAAPGERPSFDEVVGSERVIPCDMAFLAMGFLHPEPHGVLAQLGIKLDERGNVATQDFATNQKGVFAAGDMRTGQSLVVRCINEGRECARAVDTFLMGNTHLEAKADSLMLSAEGHHHHHH, MSLGLSKTIWTNPAEYLRALSPEAPVLFFSPSTLQATARRFIDGFPGMVTYAVKSNPEEVVIENLAAAGIRGYDVASPHEIRMIRRIAPDAALHYNNPVRSRSEIGVGVEMGVKSWSVDSASELAKLIELVPAEGCEIAVRFKLAVSGAAYNFGAKFGATVELAVELLRRVAEAGFIPSMTFHPGTQCTDPAAWETYIRTAAEIARDAGVTIARLNVGGGFPSHRLNGVEPELEAIFHLIDRVTDEAFGADRPLLVCEPGRGICADAFTLAARIKAVRDDAHVFLNDGVYGSLTELPMIGVIDRVAVLTPEGRRRDGETRDRIIFGPTCDSVDRLPGELPLAADVEEGDFLVFQGMGAYSAATNTRFNGFGELSMATVLSLKEGHHHHHH, MSLGMRDVAKEAGVSLSTVSLVVNKTGYVSDDMRARVEAAMKELNYVPNELARNLYKNRTNLVGVIVPTIRHPFFATLTAHLQRELAAQGLRTMLCSTADAENGEVEYVDMLRRHMMDGIIVCSHTTHPNDYWTSIHRPIVAFDRVLGGGIASIGSDHEQGGRLMAHMLVNTGAHHVVMIGGPRDQFFDLAARNGDSPDDFDLHKTTFPTVRYYLALEQELKAAGVRYEYVEAGNVEDFQGYKNAVNAVLNSMPVDGVDAVVSSDIGAALCVREAMRRHISIPRDLQIIAYDGTYLTDLAGMKMTAVAQNFDKIAQVAVGNIVRAIAKEGDAKADTTSATGRKPYEPDVLIPVTLKLGDTTREGHHHHHH, MSLGSIITLYSPVGGIGKSTIAIEMAKKLSDSNKKVLYLNLEDLQSTLVFFECSTSKNMSDFLYFIKERDENFKEVLKDIVLKDEESGINYFAPVDSVLDIEDLKVDDVKFMLQKLIEVNMYNYIIIDLSSTFNINYKTIFEMSSKIIVPIGQDKLSSVKLQNFLKQLDNLENFSFIQNKYKDNLETIIPHVLLREKKPIIQKIYYDEALESVSSLIYLKNRASTFLRCIDELIMKLLEGHHHHHH, MSLGSKIVVTGATGNVGTSVVRLLSEDPEVGTVLGLARRIPDWSPAKTEWAAVDLASEQSDLTSHFADADAVVHLAWAFQPTHDPATTWRTNVLGSIRVFEAVAAAGVPALVHASSVGAYSPGPKNHAVDESWPTHGWPDAAYCREKAYLERALDTFERDHPGIRVVRMRPAFLFKRESASEQRRIFGGRFLPGPAARPELLPFLPDVPGLRVQALHTDDAARAYRLAVRSADARGAFNLAAEPPVDAELLGELLGVRPVRLPRAAARSAIAAAWGMRLLPASPHLFDAVLRLPVMDCTRARVELGWGATRTATEVLEEFLRGLRQGAGADTEGHHHHHH, MSLGTGRNGGRAIVATGLGQCCWDTLAVVDSYPSPDSKAEAAVWAEQAGGPTATALVALARLGIPCRFAGVVGDDDAGSRIRQALDSEGVDGAFLVTRRRGASQRAFIMIERGSGRRTIVWRRPTGDPLDPREVPDAFLAGSSLLLLDGLMADASLHAAGRARSLGIPVMVDAGRMRPGMLDITRQCDYVVAAEQFFLDLGWDRTPEHFRGLAADLGAPVVTVTLGAAGSLTWSGHEPFHVPAFTVDAVDTTGAGDVFHGGYGYGILQGWSVRETVVFASAMAAMKCRQVGAQQGIPRLPDVLEFLTRRTITVLSNPQTEGHHHHHH, MSLHRLNLNGYEPDRHHEAAVAFCIHAGTDELTSPVHQHRKGQLILALHGAITCTVENALWMVPPQYAVWIPGGVKHSNQVTANAELCFLFIEPSAVTMPTTCCTLKISPLCRELILTLANRTTTQRAEPMTRRLIQVLFDELPQQPQQQLHLPVSSHPKIRTMVEMMAKEPVEWGSLGQWAGFFAMSERNLARLIVKETGLSFRQWRQQLQLIMALQGLVKGDTVQKVAHTLGYDSTTAFITMFKKGLGQTPGRYIAGLTTVSPQSAKPDPREGHHHHHH, MSLHSYDYDAIVIGSGPGGEGAAMGLVKQGARVAVIERYQNVGGGCTHWGTIPSKALRHAVSRIIEFNQNPLYSDHSRLLRSSFADILNHADNVINQQTRMRQGFYERNHCEILQGNARFVDEHTLALDCPDGSVETLTAEKFVIACGSRPYHPTDVDFTHPRIYDSDSILSMHHEPRHVLIYGAGVIGCEYASIFRGMDVKVDLINTRDRLLAFLDQEMSDSLSYHFWNSGVVIRHNEEYEKIEGCDDGVIMHLKSGKKLKADCLLYANGRTGNTDSLALQNIGLETDSRGQLKVNSMYQTAQPHVYAVGDVIGYPSLASAAYDQGRIAAQALVKGEANAHLIEDIPTGIYTIPEISSVGKTEQQLTAMKVPYEVGRAQFKHLARAQIVGMNVGTLKILFHRETKEILGIHCFGERAAEIIHIGQAIMEQKGGGNTIEYFVNTTFNYPTMAEAYRVAALNGLNRLFEGHHHHHH, MSLIAIYVRVSTEEQAIKGSSIDSQIEACIKKAGTKDVLKYADEGFSGELLERPALNRLREDASKGLISQVICYDPDRLSRKLMNQLIIDDELRKRNIPLIFVNGEYANSPEGQLFFAMRGAISEFEKAKIKERTSSGRLQKMKKGMIIKDSKLYGYKFVKEKRTLEILEEEAKIIRMIFNYFTDHKSPFFGRVNGIALHLTQMGVKTKKGAKVWHRQVVRQILMNSSYKGEHRQYKYDTEGSYVSKQAGNKSIIKIRPEEEQITVTIPAIVPAEQWDYAQELLGQSKREGHHHHHH, MSLIDIHNHILPNIDDGPTNETEMMDLLKQATTQGVTEIIVTSHHLHPRYTTPIEKVKSCLNHIESLEEVQALNLKFYYGQEIRITDQILNDIDRKVITGINDSRYLLIEFPSNEVPHYTDQLFFELQSKGFVPIIAHPERNKAISQNLDILYDLINKGALSQVTTASLAGISGKKIRKLAIQMIENNLTHFIGSDAHNTEIRPFLMKDLFNDKKLRDYYEDMNGFISNAKLVVDDKKIPKRMPQQDYKQKRWFGLEGHHHHHH, MSLIDKSSEIARFSGKGILITPKTLEKPLLKWEKLEIILYKDKIVFEFVDKTIEVGVEDIEDVGAELPKKVIDIAKSTLEDITYHSSIIIKSKEFGNVMVGFAPETSIYGKAPIDNFLRKLFYILLNKKEVKILYNAGENSENTKWENGFLTFIKKRIKDGLVTKIEYRLVVEILDNEDSKIYDIFSNIKDVEIEEKDVDGEIEPVLKILQVKDGKDIISYLYTKDKKVRLFILRYMVILLDYKYIGILRYLQETVEEGHHHHHH, MSLIPIVASSPSPLISGDGDDALRQIGLLHERSAPLGAMMIDHGPDIGERSPVFSMTTIDGVPVTVGRAVSPGRPSLLMFTGPSCPICQKLLPIIRSVAATEGADVILISDGTQAEHREFLRNHPLDGEHYVVSAEIGMRYQVSKVPYGVLLDKDGVIQAKGLCNTREHVESLFETTRVGHSTLQNFLKHGVEDASKHEGHHHHHH, MSLIRPQLDDIQTAQAQEKNLLNEFREKQSKLRNLQQYQHQLEEMRASFNQQLTQLPKESEIPGLVEDINMTGVNSGLKFKNIRLENEVKQEFFIEQPISIEATGDYHAFGAFVSGIAALPRIVTLHDFVIEAKQSKEKTDIPEVDYAVKAKTYRYIGVDEQGNASAVQANTSTTTPAQGGTPEGHHHHHH, MSLIVVKIGGRVVKNSLDKIILDILNINDKVILVHGGGDIVTDYTKRLGIEPVFVTSPEGIRSRYTTKEELEVYIMAMSLINKSITSKLCSLGKNAIGITGVDGGLLLAERKKRIVVIDERGKKRIIEGGYTGKVKEVRSEIINHLVKLFDIIVVSPIALDVEERTPLNIDGDQAAFAISKALRANVLILLSDVEGVLVEGKVINRLTPSEAKELSKKIGPGMNRKLLMAAESVENGVNKVIIGSGVKDRPIINALELNGTVIANGEGHHHHHH

Soluble on expression in E. coli, not soluble:
MSLGSMGFIESEVAVVYGRIVEGFRAPYKEDLYFKTVIVPGFSDGHMHTQVVDAGLEPSRVWSNSYEWLETRRLRVDEAAVRSDLDLSSRLAAAAFSRSLLEGVTLVAATGRLSANVRGWLSLTSRPRAIFLPTVMDRAGWPSIREVEVEIERLEGLLRDGLAKIGVFVHSLGTAKPESVRRALQTAARRRSIMGMHLSEGLPEAGRLVDVLGRGPYPARIVAVHCMEVEDLPTGVRCVSCPASNQILYRRTRPTLEGVDGFGSDWPLLIGTIARHLPLINKLYPGRLQEILYKATIGGYRAYLALHDGDFVAYDASLEDVLAGRALPVWVSVAGKPAVVEGRLSGSGYGYGEVLSIIRRLIKEALEKHGDGSLPYIPDVESMYEASLALEGGPRSEGHHHHHH, MSLGTDLLESGEGNKYLVVEKHLKQAINGGVYQADDRLPSIRSLSQELNVSKNTVIRAYQELEAQNLVYSVPKSGYRVKVALPTSRSIPDPTRVDLLSICKEILTYPEYQERLPAGSAHPNIDSPAIKSLYAEIGRHSRQQTHVPSHYQLPPGDHLLIKQLAKITQDLGTPAKLDEIMVTHGAQQAISLALRATTQKGDIVAVESPCYFGNLLMLESLGLKVVEIPSCPRDGMCPEALAKTMATWDIKALIVTPNFTNPTGAMMPLEKRQQLLLASGNIPIIEDDVFGGLSYDKPLPSLSLLDDKQRVIYVNSLSKTLDSRLRIGWMLAGRYRDQIEQYLLCENMGSLNLMQSAVATFLTSGKYRTHTARMGRVYQNNMRRFIQMLHQYLDEYESLKNRYQINAVQGSFLLWLRLPEDTDSYALYQACNKHRISLLPGTVFGTQEQYRHCVRLSVANFGHETDWSHAMQTLAKLIAKRVCEGHHHHHH, MSLILFFYFMVLSEACMRTVAPEDVYISSTFPFEDFTTEAVVTTDSSTISQLTTETTMETVETHIFYVTCKNRYPISNRNCLINRHTDDFFCFILPVDACMRTVPPEDVYISITLPYEDFTTESNEIAVTTDSSTVPQLVTETTEIPTATTTPGWSSKTELHWKISKILNTK, MSLIYFETERLIARDYLERDYLPFSQMNADEEVMKYFPARLTQVESNALLDRNQKELTSLGYGLFAIEVKSTNEFIGFTGLHEATFEAEFTPCIEIGWRLKRSAWNQGFATEAALGVLAFAKGITAINEIYSFTATCNKPSEKVMRKIHLTKIADFEHPALINGNPLKPHVLYKAEGHHHHHH, MSLKDITLQVALPKFGYKENVKSFVLEVIAKDSSFWNFFSGNEARKQIAVLVDNTAPKINIISNSYQIEQGGAGAVVFKADDANLDKVYIETNKGKIFKATPYVKEGYYAALIAWDARDEEFRAFVIATDKAGNISKERIRYYFVNRKYRVSNINLTDKFLDGKIENLANQYAPKDNNLNRYEKFKFVNETLRNSNEKLIHEITSKVPEEKIDNFDLNLFLPLKNGMKVADFADHRYYSYNGQFVSDSYHMGLDLASVAQAPIISNNAGKVVFAAENGIYGLNLIVYHGFGVYSLYGHCSSKNVDLDEMINKQSIIGKTGTSGLALGDHLHFGVLVQGVETRPEQWQDKKWIENNIYNVLNDGKKIILGKNEGHHHHHH
